± gives the standard deviation of the averaged measurements.
test system: ATP; assay: switch fluorescence ratio, 500 uM ATP over buffer (Cy3 cluster intensity, sum of 5 cycles each) (fold (ratio)); higher = stronger signal-on switching upon ATP binding; sequences stand for … in TCGTCGGCAGCGTCAGATGTGTATAAGAGACAGTTTTTTTTTTTTTTTTTTTTTTTTT…TC; settings: aptamer strand: ATP DNA aptamer (quencher-CACCTGGGGGAGTATTGCGGAGGAAGG + anchor), 100 nM annealed; ATP concentration: 500 uM
How it was run: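 After annealing to 100 nM quencher-labelled ATP aptamer, Cy3-labelled switching-strand clusters on a modified Illumina MiSeq flow-cell were imaged in selection buffer. A second image followed after 15 min with 500 uM ATP at 22 °C, and five such buffer/ATP cycles were done, each separated by NaOH stripping and re-annealing. The fluorescence ratio, averaged per switch-domain sequence, is summed target-cycle over summed buffer-cycle Cy3 intensity per cluster, with clusters outside 100-1000 RFU excluded.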
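Note: ATP exposure 15 min at 22 °C before imaging.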

Point of comparison: ACGATTAGAC, switch fluorescence ratio 1.12 ± 0.029. Against it:
- ACGAGTCTGC — lower, 0.96588 ± 0.00086
- ACGAGTGGGC — lower, 1 ± 0.063
- ACGAGTGTCG — lower, 0.964 ± 0.04
- ACGATAGAGG — within error, 1.14 ± 0.015
- ACGATCAAGG — within error, 1.13 ± 0.024
- ACGATCAGCG — lower, 1.022 ± 0.0037
- ACGATCATTT — lower, 1.048 ± 0.0024
- ACGATCGAAA — higher, 1.24 ± 0.019
- ACGATGAACG — lower, 1.04 ± 0.021
- ACGATGAAGA — lower, 1.009 ± 0.0026
- ACGATGATCT — lower, 1.06 ± 0.019
- ACGATGGAAT — higher, 1.45 ± 0.056
- ACGATTGGTA — within error, 1.03 ± 0.092
- ACGATTTGGT — lower, 1 ± 0.013
- ACGATTTTAG — lower, 1.04 ± 0.041
- ACGATTTTTA — lower, 1 ± 0.013
- ACGCCATTCT — within error, 1.151 ± 0.0096
- ACGCCGTCGA — lower, 1.035 ± 0.0099
- ACGCCTGGGC — lower, 1.02 ± 0.023
- ACGCCTGGTC — lower, 1.01 ± 0.059
- ACGCGACACC — higher, 1.25 ± 0.058
- ACGCGGACGG — lower, 1.05 ± 0.016
- ACGCGGAGAC — higher, 1.24 ± 0.024
- ACGCTGTTGA — lower, 1.03 ± 0.047
- ACGCTTGCTA — lower, 1.02 ± 0.013
- ACGCTTTGCA — lower, 0.987 ± 0.01
- ACGGAAAACA — lower, 1.019 ± 0.0039
- ACGGAACAAG — within error, 1.09 ± 0.12
- ACGGAAGTGC — the same, 1.12 ± 0.036
- ACGGCACTCT — higher, 1.55 ± 0.0028
- ACGGCATAAT — within error, 1.11 ± 0.013
- ACGGCATTTG — lower, 1.05 ± 0.024
- ACGGCTTTCG — within error, 1.05 ± 0.097
- ACGGGAAGGC — within error, 1.09 ± 0.035
- ACGGGAGCTT — lower, 1.03 ± 0.041
- ACGGGATTAA — lower, 1.04 ± 0.051
- ACGGGCCGGG — within error, 1.02 ± 0.12
- ACGGGCGGCA — within error, 1.16 ± 0.23
- ACGGGCGGTC — lower, 1.01 ± 0.015
- ACGGGGCCGT — lower, 0.985 ± 0.031
- ACGGGGGAAT — lower, 0.991 ± 0.02
- ACGGGGGAGC — lower, 1.03 ± 0.043
- ACGGGGGGAA — lower, 1.02 ± 0.019
- ACGGGGGTCC — lower, 1.02 ± 0.025
- ACGGGGGTTA — lower, 1.02 ± 0.024
- ACGGGGTCAG — lower, 0.999 ± 0.026
- ACGGGTCCGG — lower, 1.02 ± 0.011
- ACGGGTGGCT — lower, 1 ± 0.014
- ACGGGTGGGG — within error, 1.05 ± 0.051
- ACGGGTTAAT — lower, 1.01 ± 0.026
- ACGGGTTAGA — lower, 1.02 ± 0.036
- ACGGGTTGGG — lower, 1.02 ± 0.017
- ACGGTCGGGC — lower, 0.9775 ± 0.00067
- ACGGTCTTGG — lower, 0.999 ± 0.015
- ACGGTGGGGA — lower, 1.04 ± 0.036
- ACGGTGGGGG — lower, 1.01 ± 0.025
- ACGGTGGGTA — lower, 1 ± 0.038
- ACGGTGTATG — lower, 0.989 ± 0.031
- ACGGTTCAAT — lower, 1.05 ± 0.011
- ACGGTTGAG — lower, 0.96 ± 0.036
- ACGTACACTT — higher, 1.45 ± 0.074
- ACGTACCGGC — higher, 1.31 ± 0.075
- ACGTATAGAA — higher, 1.159 ± 0.0097
- ACGTATGAAA — within error, 1.09 ± 0.059
- ACGTATGATA — within error, 1.16 ± 0.056
- ACGTATGGCT — lower, 0.973 ± 0.021
- ACGTATTACA — within error, 1.83 ± 0.87
- ACGTCCGATC — within error, 1.11 ± 0.039
- ACGTCGTCGG — lower, 0.964 ± 0.018
- ACGTCTATGT — lower, 0.992 ± 0.0074
- ACGTGCCGGT — lower, 0.99 ± 0.05
- ACGTGCGGAG — lower, 1.01 ± 0.016
- ACGTGCGGGC — lower, 1.05 ± 0.013
- ACGTGCTTAT — lower, 0.976 ± 0.013
- ACGTGGGGGT — lower, 1.01 ± 0.011
- ACGTGGGTAG — lower, 0.987 ± 0.041
- ACGTGGTGTG — lower, 1.015 ± 0.0075
- ACGTGGTTGA — lower, 1.05 ± 0.026
- ACGTGTAAGC — lower, 1.03 ± 0.035
- ACGTGTGGGC — lower, 1.02 ± 0.017
- ACGTGTTTGT — lower, 1.03 ± 0.018
- ACGTTAGGGA — within error, 1.07 ± 0.091
- ACGTTATGCT — within error, 1.17 ± 0.081
- ACGTTATGTG — lower, 1.0491 ± 0.00035
- ACGTTCGTAC — lower, 1.04 ± 0.012
- ACGTTGGCGT — lower, 0.966 ± 0.041
- ACGTTGGGGC — lower, 1.04 ± 0.027
- ACGTTGGGTC — lower, 1.02 ± 0.06
- ACGTTGTTTG — lower, 0.983 ± 0.02
- ACGTTTAGTG — lower, 1.02 ± 0.016
- ACGTTTGAGG — lower, 0.988 ± 0.014
- ACGTTTGAGT — lower, 0.99 ± 0.016
- ACTAAGAGGG — lower, 1.048 ± 0.0032
- ACTAAGGCTC — lower, 1.04 ± 0.051
- ACTAAGGGG — within error, 1.25 ± 0.35
- ACTAATCGTG — lower, 1.02 ± 0.011
- ACTAATTGA — lower, 0.996 ± 0.027
- ACTACGATAT — higher, 1.34 ± 0.022
- ACTACGCCCG — higher, 1.37 ± 0.085

From the supplement of paper PMC10126150
